According to patent publication US8691225B2, “Antibodies against the ectodomain of ErbB3 and uses thereof” (Merrimack Pharmaceuticals, Inc., priority 2007, dated 2014):
Like-named read-outs stand apart in the source and are kept apart here.

Experiments:
[1] = target: ErbB3 (Homo sapiens, UniProt P21860); assay: Kinetic Exclusion Assay (KinExA); type: binding
[2] = test system: ErbB3 phosphorylation in OVCAR 5; assay: ErbB3 phosphorylation ELISA in ovarian tumor cell line; type: cell-based, human; details: IgG2 isotype
Method: (§1) All ELISA reagents for the total and phospho-ErbB3 ELISAs are purchased from R&D Systems as DUOSET kits. 96-well NUNC MAXISORB plates are coated with 50 uL of an antibody and incubated overnight at room temperature. Next morning, plates are washed 3 times with […] in the BIOTEK plate washer with Dulbecco's phosphate buffered saline without calcium or magnesium (PBS) with added Tween detergent (PBST) (0.05% Tween-20). […] The plates are washed 3 times with […] in the BIOTEK plate washer with PBST (0.05% Tween-20). 50 μL of cell lysates and standards diluted in 50% Lysis buffer and 1% BSA are used in duplicates for further processing. Samples are incubated for 2 hrs at 4° C. on a plate shaker and washed as before. About 50 μl of a detection antibody diluted in 2% BSA, PBST is added and incubated for about 1 hr at room temperature. For phosphor-ErbB3, the detection antibody is directly conjugated to horseradish peroxidase (HRP) and incubated for 2 hrs at room temperature. The plate is washed as before. About 50 μl of Streptavidin-HRP is added and incubate for 30 min at room temperature (except for pErbB3). The plates are washed as before. About 50 μL of SUPERSIGNAL ELISA Pico (Thermo Scientific) substrate is added and the plate is read using a FUSION plate reader. The data are analyzed using EXCEL. […]

[3] = test system: ErbB3 phosphorylation in OVCAR 8; assay: as above; type: cell-based, human; details: IgG2 isotype
Method: as §1

[4] = test system: heregulin-mediated phosphorylation of ErbB3 and AKT in MALME-3M cells; assay: heregulin-mediated signaling ELISA (pErbB3, pAKT); type: cell-based, human; details: for IC50: IgG2 isotype, 5 nM HRG
Method: (§2) MALME-3M cells and OVCAR8 cells are separately seeded in 96 well tissue culture plates (35,000 cells per well) and grown in RPMI-1640 media supplemented with antibiotics, 2 mM L-glutamine and 10% FBS for 24 hours at 37° C. and 5% carbon dioxide. Cells are serum-starved in RPMI-1640 media with antibiotics and 2 mM L-glutamine for 24 hours at 37° C. and 5% carbon dioxide. […] Controls are HRG without added antibody and untreated cells (no HRG and no Ab). Cells are washed with cold PBS then harvested with mammalian protein extract (M-PER) lysis buffer (Pierce, 78505) containing 150 mM NaCl, 5 mM sodium pyrophosphate (Sigma, 221368-100G), 10 uM bpV(phen) (Calbiochem, 203695), 50 μM oxophenylarsine (Calbiochem, 521000), 1 mM sodium orthovanadate (Sigma, 56508-10G), and protease inhibitor cocktail (Sigma, P2714). Cell lysates are diluted two-fold with 4% bovine serum albumin in PBST (0.2% tween-20), then analyzed by ELISA for phosphorylation of either ErbB3, or AKT (a downstream effector of ErbB3).
(§3) In order to test for AKT phosphorylation, lysates are run on an ELISA plate with a capture antibody specific to AKT and biotinylated detection antibody specific to phospho-serine 473 of phospho-AKT (pAKT). Signal is generated with streptavidin conjugated to horseradish-peroxidase reacted with SUPERSIGNAL ELISA Pico chemiluminescent substrate (Pierce, 37070). In order to assay for ErbB3 phosphorylation, lysates are run on an ELISA plate with a capture antibody specific for ErbB3 and an anti-phosphotyrosine detection antibody conjugated to horseradish-peroxidase. This is then reacted with the same chemiluminescent substrate. Luminescent signal on the ELISAs is measured using a luminometer.

[5] = test system: heregulin-mediated phosphorylation of ErbB3 and AKT in OVCAR8 cells; assay: heregulin-mediated signaling ELISA (pErbB3, pAKT); type: cell-based, human; details: for IC50: IgG2 isotype, 5 nM HRG
Method: as §2, §3

[6] = test system: Colo357 (pancreatic) xenograft; assay: xenograft tumor growth in nude mice; type: in vivo, mouse
[7] = PK analyses of serum and intra-tumoral levels from xenograft studies; type: in vivo, mouse; details: serum from animals of the xenograft studies
Source text: The data (obtained using the methods described above or minor variations thereof) from three different models derived from human tumor cell lines, AdrR (ovarian), Du145 (prostate) and OvCAR8 (ovarian) data are shown in FIGS. 17A-C and Colo357 (pancreatic) xenograft study data are shown in FIG. 17D.

[8] = target: T1, epiregulin binding to AdrR cells (Homo sapiens, UniProt P21860); assay: biotinylated epiregulin binding to AdrR cells by FACS; type: cell-based; details: 12.5 μM antibodies, 1 μM Epi
T1 construct: host or cells: AdrR (NCI/AdrR) ovarian cancer cells
Method: After 30 minutes, 50 μl of 2 μM biotinylated Epi is added to the cells and incubated for another 30 minutes on ice. This yields a final concentration of 12.5 μM antibodies and 1 μM Epi. Cells are then washed twice with 500 μl BD stain buffer and incubated with 100 μl of a 1:200 dilution of streptavidin-PE (PE=phycoerythrin, a fluorescent protein) (Invitrogen) in BD stain buffer for 45 minutes. Finally, cells are washed twice, resuspended in 300 μl of BD stain buffer and analyzed in a FACSCALIBUR flow cytometer. As a positive control, 1×10^5 AdrR cells are incubated with 1 μM Epi for 30 minutes on ice, washed twice and incubated with a 1:200 dilution of streptavidin-PE for 45 minutes. To assess background staining from the streptavidin-PE conjugate, cells are incubated with 100 μl of a 1:200 dilution of streptavidin-PE only for 45 minutes.

[9] = test system: MCF-7 cells; assay: trans-well cell migration assay; type: cell-based, human; details: 8 uM Ab #6, 10% FBS chemoattractant, 16 hours
Method: The cells are then transferred to an upper chamber that is separated from a lower chamber by a collagen type I-coated membrane through which the cells can migrate. […] The chambers are incubated at 37° C. for 16 hours and then the cells that migrate through the membrane into the lower chamber are removed using a detachment buffer and incubated with a cell-binding fluorescent dye. Fluorescence is quantitated using a fluorescent plate reader.

B1: Ab #6: human anti-ErbB3 antibody from Fab-phage library, CDRs SEQ ID NOs:7-12; used as IgG1 and IgG2 isotypes; in phase I trials as MM-121 (antibody, V domains shown)
VH: EVQLLESGGGLVQPGGSLRLSCAASGFTFSHYVMAWVRQAPGKGLEWVSSISSSGGWTLYADSVKGRFTISRDNSKNTLYLQMNSLRAEDTAVYYCTRGLKMATIFDYWGQGTLVTVSS
VL: QSALTQPASVSGSPGQSITISCTGTSSDVGSYNVVSWYQQHPGKAPKLIIYEVSQRPSGVSNRFSGSKSGNTASLTISGLQTEDEADYYCCSYAGSSIFVIFGGGTKVTVL
[1]
  dissociation rate: 0.00011 s⁻¹
[2]
  inhibition of ErbB3 phosphorylation: inhibited ErbB3 phosphorylation
[3]
  inhibition of ErbB3 phosphorylation: inhibited ErbB3 phosphorylation
[4]; FIGS. 16A-D, MALME-3M cells and OVCAR8 cells
  extent of inhibition of phosphorylation of AKT and ErbB3: essentially complete inhibiton
[4]; MALME-3M cells
  inhibition of heregulin-mediated signaling: potent inhibitor of heregulin-mediated signaling
[4]; MALME-3M cells, read-out: IC50, heregulin-mediated phosphorylation of ErbB3
  IC50: 15 nM
[4]; MALME-3M cells, read-out: IC50, phosphorylation of AKT
  IC50: 11 nM
[5]
  inhibition of heregulin-mediated signaling: potent inhibitor of heregulin-mediated signaling
[5]; read-out: IC50, heregulin-mediated phosphorylation of ErbB3
  IC50: 24 nM
[5]; read-out: IC50, phosphorylation of AKT
  IC50: 67 nM
[6]; 300 ug every three days (Q3d), p<0.05
  inhibition of tumor growth: significant inhibition of tumor growth
[6]; 600 ug Q3d versus 300 ug
  inhibition of tumor growth: further elevated
[6]; 1500 ug Q3d versus 600 ug
  inhibition of tumor growth: did not result in increased efficacy
[7]
  serum retention: dose-dependent increase in the serum retention
[8]
  inhibition of epiregulin binding to AdrR cells: inhibited
[9]
  inhibition of FBS induced cell migration: inhibits the FBS induced cell migration
